In IntAct's records for PubMed 25910212:

B1: U4/U6 small nuclear ribonucleoprotein Prp31 (Homo sapiens), Q8WWY3 (parent)
chain: MSLADELLADLEEAAEEEEGGSYGEEEEEPAIEDVQEETQLDLSGDSVKTIAKLWDSKMFAEIMMKIEEYISKQAKASEVMGPVEAAPEYRVIVDANNLTVEIENELNIIHKFIRDKYSKRFPELESLVPNALDYIRTVKELGNSLDKCKNNENLQQILTNATIMVVSVTASTTQGQQLSEEELERLEEACDMALELNASKHRIYEYVESRMSFIAPNLSIIIGASTAAKIMGVAGGLTNLSKMPACNIMLLGAQRKTLSGFSSTSVLPHTGYIYHSDIVQSLPPDLRRKAARLVAAKCTLAARVDSFHESTEGKVGYELKDEIERKFDKWQEPPPVKQVKPLPAPLDGQRKKRGGRRYRKMKERLGLTEIRKQANRMSFGEIEEDAYQEDLGFSLGHLGKSGSGRVRQTQVNEATKARISKTLQRTLQKQSVVYGGKSTIRDRSSGTASSVAFTPLQGLEIVNPQAAEKKVAEANQKYFSSMAEFLKVKGEKSGLMST

Variants of: B1
Conditions: with pnma1_human PNMA1, Q8ND90
Chain of pnma1_human PNMA1, Q8ND90 (Q8ND90 whole entry): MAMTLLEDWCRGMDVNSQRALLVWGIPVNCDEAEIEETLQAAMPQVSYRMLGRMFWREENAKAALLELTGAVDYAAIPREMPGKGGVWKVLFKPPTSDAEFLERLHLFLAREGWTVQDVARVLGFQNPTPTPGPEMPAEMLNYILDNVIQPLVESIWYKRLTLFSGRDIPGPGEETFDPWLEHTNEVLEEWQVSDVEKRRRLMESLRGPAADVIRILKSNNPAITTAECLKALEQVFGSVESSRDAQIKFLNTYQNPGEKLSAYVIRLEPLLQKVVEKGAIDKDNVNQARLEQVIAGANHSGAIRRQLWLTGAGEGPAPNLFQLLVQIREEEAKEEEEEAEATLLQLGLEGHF

| effect of a mutation on the interaction | Variant |
| --- | --- |
| with no effect | MSLADELLADLEEAAEEEEGGSYGEEEEEPAIEDVQEETQLDLSGDSVKTIAKLWDSKMFAEIMMKIEEYISKQAKASEVMGPVEAAPEYRVIVDANNLTVEIENEVNIIHKFIRDKYSKRFPELESLVPNALDYIRTVKELGNSLDKCKNNENLQQILTNATIMVVSVTASTTQGQQLSEEELERLEEACDMALELNASKHRIYEYVESRMSFIAPNLSIIIGASTAAKIMGVAGGLTNLSKMPACNIMLLGAQRKTLSGFSSTSVLPHTGYIYHSDIVQSLPPDLRRKAARLVAAKCTLAARVDSFHESTEGKVGYELKDEIERKFDKWQEPPPVKQVKPLPAPLDGQRKKRGGRRYRKMKERLGLTEIRKQANRMSFGEIEEDAYQEDLGFSLGHLGKSGSGRVRQTQVNEATKARISKTLQRTLQKQSVVYGGKSTIRDRSSGTASSVAFTPLQGLEIVNPQAAEKKVAEANQKYFSSMAEFLKVKGEKSGLMST [L107V] |

Variants of: B1
Conditions: with lzts2_human LZTS2, Q9BRK4
Chain of lzts2_human LZTS2, Q9BRK4 (Q9BRK4 whole entry): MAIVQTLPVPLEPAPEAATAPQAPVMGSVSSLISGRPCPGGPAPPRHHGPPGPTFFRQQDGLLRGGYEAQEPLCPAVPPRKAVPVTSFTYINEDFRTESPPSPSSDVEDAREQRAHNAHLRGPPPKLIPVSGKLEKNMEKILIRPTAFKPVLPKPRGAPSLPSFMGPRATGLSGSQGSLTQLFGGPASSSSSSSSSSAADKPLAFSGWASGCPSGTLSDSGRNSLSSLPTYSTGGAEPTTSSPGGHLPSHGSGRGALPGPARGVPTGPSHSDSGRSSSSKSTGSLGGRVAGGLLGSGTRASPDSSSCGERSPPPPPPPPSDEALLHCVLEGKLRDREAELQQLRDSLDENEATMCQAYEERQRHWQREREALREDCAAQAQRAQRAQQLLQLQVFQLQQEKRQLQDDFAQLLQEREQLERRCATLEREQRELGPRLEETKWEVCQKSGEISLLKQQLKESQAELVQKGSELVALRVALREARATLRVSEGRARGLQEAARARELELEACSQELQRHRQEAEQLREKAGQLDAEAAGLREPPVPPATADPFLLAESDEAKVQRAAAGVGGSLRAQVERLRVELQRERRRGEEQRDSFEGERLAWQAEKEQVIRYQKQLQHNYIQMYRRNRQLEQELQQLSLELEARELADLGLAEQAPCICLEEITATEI

| effect of a mutation on the interaction | Variant |
| --- | --- |
| with no effect | MSLADELLADLEEAAEEEEGGSYGEEEEEPAIEDVQEETQLDLSGDSVKTIAKLWDSKMFAEIMMKIEEYISKQAKASEVMGPVEAAPEYRVIVDANNLTVEIENEVNIIHKFIRDKYSKRFPELESLVPNALDYIRTVKELGNSLDKCKNNENLQQILTNATIMVVSVTASTTQGQQLSEEELERLEEACDMALELNASKHRIYEYVESRMSFIAPNLSIIIGASTAAKIMGVAGGLTNLSKMPACNIMLLGAQRKTLSGFSSTSVLPHTGYIYHSDIVQSLPPDLRRKAARLVAAKCTLAARVDSFHESTEGKVGYELKDEIERKFDKWQEPPPVKQVKPLPAPLDGQRKKRGGRRYRKMKERLGLTEIRKQANRMSFGEIEEDAYQEDLGFSLGHLGKSGSGRVRQTQVNEATKARISKTLQRTLQKQSVVYGGKSTIRDRSSGTASSVAFTPLQGLEIVNPQAAEKKVAEANQKYFSSMAEFLKVKGEKSGLMST [L107V] |

Variants of: B1
Conditions: with pak5_human PAK5, Q9P286
Chain of pak5_human PAK5, Q9P286 (Q9P286 whole entry, looked up): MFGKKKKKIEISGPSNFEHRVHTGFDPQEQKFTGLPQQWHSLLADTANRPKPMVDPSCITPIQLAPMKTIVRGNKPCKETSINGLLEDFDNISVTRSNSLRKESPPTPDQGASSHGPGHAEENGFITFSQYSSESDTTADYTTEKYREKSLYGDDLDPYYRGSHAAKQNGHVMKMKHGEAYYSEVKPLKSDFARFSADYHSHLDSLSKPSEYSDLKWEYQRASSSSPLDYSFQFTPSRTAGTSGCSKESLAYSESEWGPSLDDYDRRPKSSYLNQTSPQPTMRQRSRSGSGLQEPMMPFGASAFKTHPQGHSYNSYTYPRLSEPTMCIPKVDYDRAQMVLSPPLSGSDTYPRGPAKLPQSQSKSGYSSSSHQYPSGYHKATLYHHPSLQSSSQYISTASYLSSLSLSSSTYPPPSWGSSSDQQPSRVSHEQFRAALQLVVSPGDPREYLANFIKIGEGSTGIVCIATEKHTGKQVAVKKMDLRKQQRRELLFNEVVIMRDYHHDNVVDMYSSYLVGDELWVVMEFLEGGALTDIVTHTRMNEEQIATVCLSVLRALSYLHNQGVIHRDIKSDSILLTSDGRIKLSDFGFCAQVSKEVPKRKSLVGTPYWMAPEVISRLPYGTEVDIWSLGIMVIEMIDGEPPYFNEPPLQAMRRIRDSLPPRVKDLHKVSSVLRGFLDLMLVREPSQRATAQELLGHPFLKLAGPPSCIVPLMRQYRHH

| effect of a mutation on the interaction | Variant |
| --- | --- |
| with no effect | MSLADELLADLEEAAEEEEGGSYGEEEEEPAIEDVQEETQLDLSGDSVKTIAKLWDSKMFAEIMMKIEEYISKQAKASEVMGPVEAAPEYRVIVDANNLTVEIENEVNIIHKFIRDKYSKRFPELESLVPNALDYIRTVKELGNSLDKCKNNENLQQILTNATIMVVSVTASTTQGQQLSEEELERLEEACDMALELNASKHRIYEYVESRMSFIAPNLSIIIGASTAAKIMGVAGGLTNLSKMPACNIMLLGAQRKTLSGFSSTSVLPHTGYIYHSDIVQSLPPDLRRKAARLVAAKCTLAARVDSFHESTEGKVGYELKDEIERKFDKWQEPPPVKQVKPLPAPLDGQRKKRGGRRYRKMKERLGLTEIRKQANRMSFGEIEEDAYQEDLGFSLGHLGKSGSGRVRQTQVNEATKARISKTLQRTLQKQSVVYGGKSTIRDRSSGTASSVAFTPLQGLEIVNPQAAEKKVAEANQKYFSSMAEFLKVKGEKSGLMST [L107V] |

Variants of: B1
Conditions: with myome_human PDE4DIP

| effect of a mutation on the interaction | Variant |
| --- | --- |
| with no effect | MSLADELLADLEEAAEEEEGGSYGEEEEEPAIEDVQEETQLDLSGDSVKTIAKLWDSKMFAEIMMKIEEYISKQAKASEVMGPVEAAPEYRVIVDANNLTVEIENEVNIIHKFIRDKYSKRFPELESLVPNALDYIRTVKELGNSLDKCKNNENLQQILTNATIMVVSVTASTTQGQQLSEEELERLEEACDMALELNASKHRIYEYVESRMSFIAPNLSIIIGASTAAKIMGVAGGLTNLSKMPACNIMLLGAQRKTLSGFSSTSVLPHTGYIYHSDIVQSLPPDLRRKAARLVAAKCTLAARVDSFHESTEGKVGYELKDEIERKFDKWQEPPPVKQVKPLPAPLDGQRKKRGGRRYRKMKERLGLTEIRKQANRMSFGEIEEDAYQEDLGFSLGHLGKSGSGRVRQTQVNEATKARISKTLQRTLQKQSVVYGGKSTIRDRSSGTASSVAFTPLQGLEIVNPQAAEKKVAEANQKYFSSMAEFLKVKGEKSGLMST [L107V] |

Variants of: B1
Conditions: with tsg10_human TSGA10, Q9BZW7
Chain of tsg10_human TSGA10, Q9BZW7 (Q9BZW7 whole entry): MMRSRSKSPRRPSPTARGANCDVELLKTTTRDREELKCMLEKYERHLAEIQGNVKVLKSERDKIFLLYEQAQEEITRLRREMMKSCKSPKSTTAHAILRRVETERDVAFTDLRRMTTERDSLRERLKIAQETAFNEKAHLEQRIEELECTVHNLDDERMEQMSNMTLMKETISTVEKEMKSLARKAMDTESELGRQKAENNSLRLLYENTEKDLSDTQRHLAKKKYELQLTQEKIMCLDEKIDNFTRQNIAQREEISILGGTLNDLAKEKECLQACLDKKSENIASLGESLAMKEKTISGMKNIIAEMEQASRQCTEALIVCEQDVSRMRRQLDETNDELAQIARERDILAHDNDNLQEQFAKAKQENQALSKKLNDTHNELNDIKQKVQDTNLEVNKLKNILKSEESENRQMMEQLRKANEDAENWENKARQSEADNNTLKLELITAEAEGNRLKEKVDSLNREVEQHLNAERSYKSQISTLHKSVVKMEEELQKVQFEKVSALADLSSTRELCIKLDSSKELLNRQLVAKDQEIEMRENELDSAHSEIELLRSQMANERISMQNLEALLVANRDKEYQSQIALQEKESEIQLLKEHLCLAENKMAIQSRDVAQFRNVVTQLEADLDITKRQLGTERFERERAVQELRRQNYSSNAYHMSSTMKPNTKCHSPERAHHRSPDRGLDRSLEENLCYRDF

| effect of a mutation on the interaction | Variant |
| --- | --- |
| with no effect | MSLADELLADLEEAAEEEEGGSYGEEEEEPAIEDVQEETQLDLSGDSVKTIAKLWDSKMFAEIMMKIEEYISKQAKASEVMGPVEAAPEYRVIVDANNLTVEIENEVNIIHKFIRDKYSKRFPELESLVPNALDYIRTVKELGNSLDKCKNNENLQQILTNATIMVVSVTASTTQGQQLSEEELERLEEACDMALELNASKHRIYEYVESRMSFIAPNLSIIIGASTAAKIMGVAGGLTNLSKMPACNIMLLGAQRKTLSGFSSTSVLPHTGYIYHSDIVQSLPPDLRRKAARLVAAKCTLAARVDSFHESTEGKVGYELKDEIERKFDKWQEPPPVKQVKPLPAPLDGQRKKRGGRRYRKMKERLGLTEIRKQANRMSFGEIEEDAYQEDLGFSLGHLGKSGSGRVRQTQVNEATKARISKTLQRTLQKQSVVYGGKSTIRDRSSGTASSVAFTPLQGLEIVNPQAAEKKVAEANQKYFSSMAEFLKVKGEKSGLMST [L107V] |

Variants of: B1
Conditions: with ppip1_human PSTPIP1, O43586
Chain of ppip1_human PSTPIP1, O43586 (O43586 whole entry): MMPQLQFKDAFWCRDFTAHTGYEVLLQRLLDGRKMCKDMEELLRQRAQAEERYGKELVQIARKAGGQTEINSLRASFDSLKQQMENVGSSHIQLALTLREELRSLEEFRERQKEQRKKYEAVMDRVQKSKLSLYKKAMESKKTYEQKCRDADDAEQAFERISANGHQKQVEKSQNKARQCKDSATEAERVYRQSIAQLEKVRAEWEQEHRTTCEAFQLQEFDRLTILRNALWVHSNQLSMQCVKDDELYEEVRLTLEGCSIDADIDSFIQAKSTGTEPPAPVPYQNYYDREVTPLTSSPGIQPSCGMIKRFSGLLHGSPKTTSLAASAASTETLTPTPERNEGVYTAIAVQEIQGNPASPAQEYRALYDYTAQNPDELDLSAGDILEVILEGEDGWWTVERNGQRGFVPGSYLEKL

| effect of a mutation on the interaction | Variant |
| --- | --- |
| with no effect | MSLADELLADLEEAAEEEEGGSYGEEEEEPAIEDVQEETQLDLSGDSVKTIAKLWDSKMFAEIMMKIEEYISKQAKASEVMGPVEAAPEYRVIVDANNLTVEIENEVNIIHKFIRDKYSKRFPELESLVPNALDYIRTVKELGNSLDKCKNNENLQQILTNATIMVVSVTASTTQGQQLSEEELERLEEACDMALELNASKHRIYEYVESRMSFIAPNLSIIIGASTAAKIMGVAGGLTNLSKMPACNIMLLGAQRKTLSGFSSTSVLPHTGYIYHSDIVQSLPPDLRRKAARLVAAKCTLAARVDSFHESTEGKVGYELKDEIERKFDKWQEPPPVKQVKPLPAPLDGQRKKRGGRRYRKMKERLGLTEIRKQANRMSFGEIEEDAYQEDLGFSLGHLGKSGSGRVRQTQVNEATKARISKTLQRTLQKQSVVYGGKSTIRDRSSGTASSVAFTPLQGLEIVNPQAAEKKVAEANQKYFSSMAEFLKVKGEKSGLMST [L107V] |

Variants of: B1
Conditions: with fbln4_human EFEMP2, O95967
Chain of fbln4_human EFEMP2, O95967 (O95967 whole entry): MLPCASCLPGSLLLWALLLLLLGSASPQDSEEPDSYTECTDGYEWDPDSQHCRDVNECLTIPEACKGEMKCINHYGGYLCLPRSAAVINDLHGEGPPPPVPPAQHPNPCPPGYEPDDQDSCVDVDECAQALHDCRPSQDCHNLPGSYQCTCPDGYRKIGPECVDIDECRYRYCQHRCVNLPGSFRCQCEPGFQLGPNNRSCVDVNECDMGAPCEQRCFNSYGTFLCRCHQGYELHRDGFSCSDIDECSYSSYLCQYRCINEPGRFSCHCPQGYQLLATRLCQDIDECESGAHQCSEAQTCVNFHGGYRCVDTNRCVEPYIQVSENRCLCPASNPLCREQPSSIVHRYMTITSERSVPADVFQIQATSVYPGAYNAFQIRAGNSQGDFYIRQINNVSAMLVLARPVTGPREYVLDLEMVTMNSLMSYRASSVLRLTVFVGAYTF

| effect of a mutation on the interaction | Variant |
| --- | --- |
| with no effect | MSLADELLADLEEAAEEEEGGSYGEEEEEPAIEDVQEETQLDLSGDSVKTIAKLWDSKMFAEIMMKIEEYISKQAKASEVMGPVEAAPEYRVIVDANNLTVEIENEVNIIHKFIRDKYSKRFPELESLVPNALDYIRTVKELGNSLDKCKNNENLQQILTNATIMVVSVTASTTQGQQLSEEELERLEEACDMALELNASKHRIYEYVESRMSFIAPNLSIIIGASTAAKIMGVAGGLTNLSKMPACNIMLLGAQRKTLSGFSSTSVLPHTGYIYHSDIVQSLPPDLRRKAARLVAAKCTLAARVDSFHESTEGKVGYELKDEIERKFDKWQEPPPVKQVKPLPAPLDGQRKKRGGRRYRKMKERLGLTEIRKQANRMSFGEIEEDAYQEDLGFSLGHLGKSGSGRVRQTQVNEATKARISKTLQRTLQKQSVVYGGKSTIRDRSSGTASSVAFTPLQGLEIVNPQAAEKKVAEANQKYFSSMAEFLKVKGEKSGLMST [L107V] |

Variants of: B1
Conditions: with ldoc1_human LDOC1, O95751
Chain of ldoc1_human LDOC1, O95751 (O95751 whole entry): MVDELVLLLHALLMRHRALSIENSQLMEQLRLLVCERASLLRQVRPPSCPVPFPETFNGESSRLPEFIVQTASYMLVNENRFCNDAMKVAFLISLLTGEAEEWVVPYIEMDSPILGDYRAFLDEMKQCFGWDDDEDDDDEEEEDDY

| effect of a mutation on the interaction | Variant |
| --- | --- |
| with no effect | MSLADELLADLEEAAEEEEGGSYGEEEEEPAIEDVQEETQLDLSGDSVKTIAKLWDSKMFAEIMMKIEEYISKQAKASEVMGPVEAAPEYRVIVDANNLTVEIENEVNIIHKFIRDKYSKRFPELESLVPNALDYIRTVKELGNSLDKCKNNENLQQILTNATIMVVSVTASTTQGQQLSEEELERLEEACDMALELNASKHRIYEYVESRMSFIAPNLSIIIGASTAAKIMGVAGGLTNLSKMPACNIMLLGAQRKTLSGFSSTSVLPHTGYIYHSDIVQSLPPDLRRKAARLVAAKCTLAARVDSFHESTEGKVGYELKDEIERKFDKWQEPPPVKQVKPLPAPLDGQRKKRGGRRYRKMKERLGLTEIRKQANRMSFGEIEEDAYQEDLGFSLGHLGKSGSGRVRQTQVNEATKARISKTLQRTLQKQSVVYGGKSTIRDRSSGTASSVAFTPLQGLEIVNPQAAEKKVAEANQKYFSSMAEFLKVKGEKSGLMST [L107V] |

Variants of: B1
Conditions: with znf24_human ZNF24, P17028
Chain of znf24_human ZNF24, P17028 (P17028 whole entry): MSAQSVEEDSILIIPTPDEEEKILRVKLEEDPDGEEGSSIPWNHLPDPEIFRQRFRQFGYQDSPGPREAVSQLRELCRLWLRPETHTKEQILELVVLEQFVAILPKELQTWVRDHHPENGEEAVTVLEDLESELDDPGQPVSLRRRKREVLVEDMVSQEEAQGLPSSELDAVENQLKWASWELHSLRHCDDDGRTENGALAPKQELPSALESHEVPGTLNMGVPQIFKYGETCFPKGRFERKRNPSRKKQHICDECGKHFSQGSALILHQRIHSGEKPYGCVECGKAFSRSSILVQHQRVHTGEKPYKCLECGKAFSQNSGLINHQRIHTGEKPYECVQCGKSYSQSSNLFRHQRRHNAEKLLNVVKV

| effect of a mutation on the interaction | Variant |
| --- | --- |
| with no effect | MSLADELLADLEEAAEEEEGGSYGEEEEEPAIEDVQEETQLDLSGDSVKTIAKLWDSKMFAEIMMKIEEYISKQAKASEVMGPVEAAPEYRVIVDANNLTVEIENEVNIIHKFIRDKYSKRFPELESLVPNALDYIRTVKELGNSLDKCKNNENLQQILTNATIMVVSVTASTTQGQQLSEEELERLEEACDMALELNASKHRIYEYVESRMSFIAPNLSIIIGASTAAKIMGVAGGLTNLSKMPACNIMLLGAQRKTLSGFSSTSVLPHTGYIYHSDIVQSLPPDLRRKAARLVAAKCTLAARVDSFHESTEGKVGYELKDEIERKFDKWQEPPPVKQVKPLPAPLDGQRKKRGGRRYRKMKERLGLTEIRKQANRMSFGEIEEDAYQEDLGFSLGHLGKSGSGRVRQTQVNEATKARISKTLQRTLQKQSVVYGGKSTIRDRSSGTASSVAFTPLQGLEIVNPQAAEKKVAEANQKYFSSMAEFLKVKGEKSGLMST [L107V] |

Variants of: B1
Conditions: with KRT15, P19012
Chain of KRT15, P19012 (P19012 whole entry): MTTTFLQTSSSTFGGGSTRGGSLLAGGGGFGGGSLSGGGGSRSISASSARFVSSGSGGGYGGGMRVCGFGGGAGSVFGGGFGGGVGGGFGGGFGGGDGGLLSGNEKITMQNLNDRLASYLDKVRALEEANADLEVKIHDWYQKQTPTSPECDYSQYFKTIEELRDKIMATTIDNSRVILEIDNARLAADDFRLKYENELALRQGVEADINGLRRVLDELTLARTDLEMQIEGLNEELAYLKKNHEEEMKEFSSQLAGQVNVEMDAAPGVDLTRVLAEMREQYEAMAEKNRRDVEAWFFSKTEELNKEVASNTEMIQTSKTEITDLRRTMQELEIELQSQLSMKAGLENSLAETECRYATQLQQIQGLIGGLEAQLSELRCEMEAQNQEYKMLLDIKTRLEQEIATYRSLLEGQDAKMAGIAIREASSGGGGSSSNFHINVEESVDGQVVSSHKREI

| effect of a mutation on the interaction | Variant |
| --- | --- |
| with no effect | MSLADELLADLEEAAEEEEGGSYGEEEEEPAIEDVQEETQLDLSGDSVKTIAKLWDSKMFAEIMMKIEEYISKQAKASEVMGPVEAAPEYRVIVDANNLTVEIENEVNIIHKFIRDKYSKRFPELESLVPNALDYIRTVKELGNSLDKCKNNENLQQILTNATIMVVSVTASTTQGQQLSEEELERLEEACDMALELNASKHRIYEYVESRMSFIAPNLSIIIGASTAAKIMGVAGGLTNLSKMPACNIMLLGAQRKTLSGFSSTSVLPHTGYIYHSDIVQSLPPDLRRKAARLVAAKCTLAARVDSFHESTEGKVGYELKDEIERKFDKWQEPPPVKQVKPLPAPLDGQRKKRGGRRYRKMKERLGLTEIRKQANRMSFGEIEEDAYQEDLGFSLGHLGKSGSGRVRQTQVNEATKARISKTLQRTLQKQSVVYGGKSTIRDRSSGTASSVAFTPLQGLEIVNPQAAEKKVAEANQKYFSSMAEFLKVKGEKSGLMST [L107V] |

Variants of: B1
Conditions: with rbmx_human RBMX

| effect of a mutation on the interaction | Variant |
| --- | --- |
| with no effect | MSLADELLADLEEAAEEEEGGSYGEEEEEPAIEDVQEETQLDLSGDSVKTIAKLWDSKMFAEIMMKIEEYISKQAKASEVMGPVEAAPEYRVIVDANNLTVEIENEVNIIHKFIRDKYSKRFPELESLVPNALDYIRTVKELGNSLDKCKNNENLQQILTNATIMVVSVTASTTQGQQLSEEELERLEEACDMALELNASKHRIYEYVESRMSFIAPNLSIIIGASTAAKIMGVAGGLTNLSKMPACNIMLLGAQRKTLSGFSSTSVLPHTGYIYHSDIVQSLPPDLRRKAARLVAAKCTLAARVDSFHESTEGKVGYELKDEIERKFDKWQEPPPVKQVKPLPAPLDGQRKKRGGRRYRKMKERLGLTEIRKQANRMSFGEIEEDAYQEDLGFSLGHLGKSGSGRVRQTQVNEATKARISKTLQRTLQKQSVVYGGKSTIRDRSSGTASSVAFTPLQGLEIVNPQAAEKKVAEANQKYFSSMAEFLKVKGEKSGLMST [L107V] |
